Data: the supplement of paper PMC10724198
± gives the standard deviation of the averaged measurements.

Columns and labels:
Saccharomyces cerevisiae [1] = experiment: protein stability index of tFT-peptide fusion (C-terminal peptide) (PSI (0-1 scale)); higher = more stable (slower turnover)
Method: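 MPS profiling in S. cerevisiae of the tFT-X12 degron library: putative degron peptides plus stable controls, 12 aa, fused to the C-terminus of a sfGFP-mCherry timer. Cells are FACS-sorted into 8 mCherry/sfGFP bins and deep-sequenced. PSI runs from 0 (unstable) to 1 (stable). Backgrounds are wild type, das1Δ and doa10Δ at 30 °C, and wild type, das1Δ, cdc34-1 and cdc53-1 at 37 °C; 2-3 technical replicates each.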

Saccharomyces cerevisiae [2] = experiment: as above; settings: genetic background: wild type; temperature: 30 C
[3] = genetic background: cdc34-1, temperature: 37 C
[4] = genetic background: cdc53-1, temperature: 37 C
[5] = genetic background: das1 deletion, temperature: 30 C
[6] = genetic background: das1 deletion, temperature: 37 C
[7] = genetic background: doa10 deletion, temperature: 30 C
[8] = genetic background: wild type, temperature: 30 C
[9] = genetic background: wild type, temperature: 37 C
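Note: PSI is a weighted mean of sequencing reads over stability bins, variants kept only with over 10 reads, mCherry proximal and sfGFP distal, peptide attached via GGGS linker.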

Sequence	protein stability index (Saccharomyces cerevisiae [1]; [3])	protein stability index (Saccharomyces cerevisiae [1]; [4])	protein stability index (Saccharomyces cerevisiae [1]; [5])	protein stability index (Saccharomyces cerevisiae [1]; [6])	protein stability index (Saccharomyces cerevisiae [1]; [7])	protein stability index (Saccharomyces cerevisiae [1]; [8])	protein stability index (Saccharomyces cerevisiae [1]; [9])	protein stability index (Saccharomyces cerevisiae [2])
PSPPPYAPPIPA	0.549 ± 0.03	0.611 ± 0.055	0.44 ± 0.023	0.5857 ± 0.0057	0.416 ± 0.019	0.447 ± 0.021	0.563 ± 0.02	0.488 ± 0.0057
PSSPTPPPSSSP	0.655 ± 0.021	0.726 ± 0.011	0.664 ± 0.017	0.73 ± 0.0086	0.679 ± 0.017	0.673 ± 0.011	0.7306 ± 0.0015	0.353 ± 0.039
PSSVKLRVPSLY	0.672 ± 0.029	0.762 ± 0.033	0.623 ± 0.021	0.7309 ± 0.00087	0.61091 ± 0.00013	0.636 ± 0.015	0.715 ± 0.033	0.7075 ± 0.0025
PTPSRPPHPPLR	0.704 ± 0.049	0.752 ± 0.05	0.633 ± 0.013	0.725 ± 0.054	0.658 ± 0.025	0.66 ± 0.0015	0.69 ± 0.0022	0.704 ± 0.02
PVALYPVQAYLT	0.5565 ± 0.0049	0.71 ± 0.025	0.616 ± 0.012	0.715 ± 0.022	0.119 ± 0.01	0.146 ± 0.017	0.265 ± 0.094	0.2307 ± 0.0013
PVFVLFFFSSLV	0.421 ± 0.012	0.533 ± 0.0086	0.371 ± 0.028	0.5579 ± 0.0041	0.329 ± 0.011	0.35 ± 0.013	0.5151 ± 0.0018	0.44 ± 0.012
PVLIFTWVIVCH	0.0357 ± 0.011	0.0674 ± 0.026	0.0676 ± 0.026	0.142 ± 0.013	0.0332 ± 0.0019	0.0533 ± 0.023	0.0899 ± 0.012	0.162 ± 0.036
PVLPPPLLLCPC	0.0283 ± 0.018	0.0268 ± 0.011	0.119 ± 0.023	0.11 ± 0.024	0.0972 ± 0.0096	0.15 ± 0.018	0.0932 ± 0.032	0.22801 ± 2.4e-05
PWEYSSQLVLVI	0.0478 ± 0.02	0.0865 ± 0.011	0.179 ± 0.025	0.2067 ± 0.0011	0.155 ± 0.0084	0.177 ± 0.023	0.159 ± 0.021	0.281 ± 0.022
QCRLPRPPLSLP	0.676 ± 0.017	0.7414 ± 0.0062	0.651 ± 0.022	0.7354 ± 0.0058	0.672 ± 0.032	0.692 ± 0.009	0.693 ± 0.0099	0.436 ± 0.022
QPTGYFKLIIIK	0.317 ± 0.029	0.393 ± 0.072	0.3 ± 0.044	0.473 ± 0.047	0.38 ± 0.0083	0.323 ± 0.067	0.4476 ± 0.0013	0.3976 ± 0.0014
QPTPQSALAKHQ	0.655 ± 0.018	0.721 ± 0.04	0.6492 ± 0.005	0.731 ± 0.034	0.3327 ± 0.0025	0.337 ± 0.0054	0.544 ± 0.04	0.515 ± 0.04
RASLPSLFRSLL	0.951 ± 0.014	0.913 ± 0.048	0.804 ± 0.047	0.879 ± 0.019	0.8152 ± 0.008	0.807 ± 0.022	0.897 ± 0.011	0.811 ± 0.073
RAVLRFVMVWVL	0.499 ± 0.042	0.611 ± 0.024	0.466 ± 0.02	0.5789 ± 0.003	0.253 ± 0.024	0.244 ± 0.051	0.434 ± 0.022	0.317 ± 0.0068
RCTLFVNPVCVH	0.251 ± 0.018	0.304 ± 0.008	0.242 ± 0.034	0.402 ± 0.025	0.197 ± 0.011	0.241 ± 0.015	0.345 ± 0.017	0.349 ± 0.014
RGFIFFALWSFC	0.458 ± 0.0091	0.544 ± 0.021	0.375 ± 0.031	0.5317 ± 0.0053	0.334 ± 0.021	0.35 ± 0.016	0.498 ± 0.022	0.384 ± 0.08
RGFVVFCIPCFV	0.301 ± 0.042	0.326 ± 0.021	0.259 ± 0.042	0.428 ± 0.033	0.204 ± 0.0051	0.243 ± 0.03	0.401 ± 0.038	0.3392 ± 0.002
RGKVVRGLLFCA	0.619 ± 0.058	0.7188 ± 0.0062	0.624 ± 0.031	0.7327 ± 0.0057	0.137 ± 0.012	0.151 ± 0.0035	0.318 ± 0.077	0.3 ± 0.12
RGPAYATCHLLC	0.599 ± 0.041	0.7316 ± 0.0053	0.645 ± 0.012	0.75 ± 0.0094	0.119 ± 0.013	0.141 ± 0.022	0.257 ± 0.015	0.232 ± 0.028
RIAIRSAVICAS	0.306 ± 0.05	0.379 ± 0.0076	0.276 ± 0.028	0.487 ± 0.0057	0.101 ± 0.032	0.138 ± 0.038	0.154 ± 0.02	0.183 ± 0.028
RIIKIRAISINL	0.575 ± 0.062	0.66 ± 0.065	0.523 ± 0.023	0.607 ± 0.061	0.454 ± 0.03	0.468 ± 0.016	0.609 ± 0.03	0.501 ± 0.022
RILKLPGHVNDV	0.6842 ± 0.0067	0.711 ± 0.031	0.654 ± 0.043	0.697 ± 0.026	0.652 ± 0.065	0.65 ± 0.027	0.69 ± 0.019	0.7167 ± 0.005
RIRLYWVLRRLG	0.595 ± 0.008	0.693 ± 0.013	0.571 ± 0.023	0.758 ± 0.0098	0.0772 ± 0.023	0.0992 ± 0.031	0.129 ± 0.0085	0.183 ± 0.0066
RISGSIVVRKRS	0.673 ± 0.032	0.738 ± 0.011	0.642 ± 0.015	0.722 ± 0.019	0.425 ± 0.0081	0.45 ± 0.033	0.6333 ± 0.0061	0.554 ± 0.1
RLPRILVLVCLF	0.231 ± 0.0089	0.318 ± 0.025	0.228 ± 0.04	0.383 ± 0.00011	0.169 ± 0.0018	0.163 ± 0.022	0.25 ± 0.0094	0.237 ± 0.017
RLPSSNVRYWVS	0.637 ± 0.037	0.729 ± 0.012	0.64 ± 0.012	0.751 ± 0.032	0.1599 ± 0.001	0.183 ± 0.012	0.394 ± 0.037	0.235 ± 0.035
RNDCAYHVLQIV	0.607 ± 0.016	0.722 ± 0.054	0.646 ± 0.015	0.7115 ± 0.0031	0.181 ± 0.0022	0.202 ± 0.035	0.381 ± 0.0042	0.228 ± 0.0084
RNTLLFKRILHI	0.671 ± 0.028	0.706 ± 0.017	0.637 ± 0.032	0.77 ± 0.018	0.0865 ± 0.024	0.108 ± 0.045	0.154 ± 0.0032	0.165 ± 0.059
RPPSLVFLFLLT	0.551 ± 0.062	0.587 ± 0.021	0.441 ± 0.048	0.598 ± 0.01	0.401 ± 0.026	0.395 ± 0.015	0.573 ± 0.023	0.441 ± 0.032
RRGGNIVWYCLV	0.588 ± 0.025	0.694 ± 0.015	0.634 ± 0.0066	0.714 ± 0.011	0.125 ± 0.0088	0.148 ± 0.017	0.24 ± 0.0074	0.234 ± 0.017
